Where no end group is shown, it is not given here. PEG = not defined here
What was measured:
[1] = Pharmacokinetic analysis after SC administration to male cynomolgus monkeys (serum, N-terminal specific radioimmunoassay); assay type: in vivo; details: 0.01 mg/kg, mean
Protocol: A PEGylated GLP-1 compound of Formula I, wherein Xaa8 is Val; Xaa22 is Glu; Xaa33 is Ile; and Xaa46 is Cys-NH2 is administered by subcutaneous (SC) route at a dose of 0.01 mg/kg to male cynomolgus monkeys. The animals are bled at various times between 0 and 168 hours after dosing. Serum is collected from each sample and analyzed by N-terminal specific radioimmunoassay. Pharmacokinetic parameters are calculated using noncompartmental methods (WinNonlin Pro). Representative data are shown below in Table 2.

[2] = Pharmacokinetic analysis after IV or SC administration to male SD rats (plasma, N-terminal specific radioimmunoassay); assay type: in vivo; details: for AUC0-last / CL/F (total body clearance as a function of bioavailability) / Cmax (maximum observed plasma concentration) / Tmax (time of maximum observed plasma concentration) / t1/2 (elimination half-life): mean
Protocol: A PEGylated GLP-1 compound of Formula I, wherein Xaa8 is Val; Xaa22 is Glu; Xaa33 is Ile; and Xaa46 is Cys-NH2 is administered by intravenous (IV) or subcutaneous (SC) routes at a dose of 0.1 mg/kg to male SD rats. The animals (3 rats per group) are bled at various times between 0 and 192 hours after dosing. Plasma is collected from each sample and analyzed by N-terminal specific radioimmunoassay. Pharmacokinetic parameters are calculated using noncompartmental methods (WinNonlin Pro). By IV administration, the PEGylated GLP-1 analog has an elimination half-life of approximately 1.2 days while by SC administration the PEGylated GLP-1 analog has an elimination half-life of approximately 1.1 days. […] Prolonged elimination half-life, slow clearance and subcutaneous bioavailability (approximately 30%) are observed for the compound. Representative data are shown below in Table 1

[3] = molecular target: T1, human GLP-1 receptor (Homo sapiens, UniProt P43220); assay: In vitro activity assay, CRE-Luciferase in HEK-293 cells stably expressing the human GLP-1 receptor; assay type: cell-based; details: 5 hours incubation
T1 construct: expressed in transfected cells
Protocol: “In vitro potency” as used herein, is the measure of the ability of a peptide to activate the GLP-1 receptor in a cell-based assay. In vitro potency is expressed as the “EC50” which is the effective concentration of compound that results in 50% activity in a single dose-response experiment. For the purposes of the present invention, in vitro potency is determined using a […] assay that employs HEK-293 cells that stably express the human GLP-1 receptor. These HEK-293 cells have stably integrated a DNA vector having a cAMP response element (CRE) driving expression of the luciferase gene. The interaction of a GLP-1 compound or a PEGylated GLP-1 compound with the receptor initiates a signal that results in activation of the cAMP response element and subsequent expression of luciferase. The EC50 values for the PEGylated GLP-1 compounds listed in Example 3 were determined using the luciferase assay described above. Relative in vitro potency values may be established by running Val8-GLP-1(7-37)OH or native GLP-1 as a control and assigning the control a reference value of 100%.
HEK-293 cells stably expressing the human GLP-1 receptor, using a CRE-Luciferase system, are seeded at 30,000 cells/well/80 μl low serum DMEM F12 medium into 96 well plates. […] Plates are placed in a Tri-lux luminometer and light output resulting from luciferase expression is calculated.

[4] = system: Insulin; assay: Pharmacodynamic analysis: stepped intravenous glucose infusion, insulin levels by immunoassay; assay type: in vivo, male cynomolgus monkeys; details: for Insulin AUC, AUClast: stepped IV glucose infusion, mean
Protocol: A PEGylated GLP-1 compound of Formula I, wherein Xaa8 is Val; Xaa22 is Glu; Xaa33 is Ile; and Xaa46 is Cys-NH2 is administered by subcutaneous (SC) route at a dose of 0.01 mg/kg to male cynomolgus monkeys. A stepped intravenous glucose infusion is conducted immediately after SC administration of vehicle control (phosphate buffered saline) and 1, 5, and 7 days after SC administration of 0.01 mg/kg PEGylated GLP-1 analog. Stepped intravenous glucose infusion procedures are conducted in sedated monkeys after a 16-hour fast. Blood samples are drawn at 10 minutes prior to start of glucose infusion and immediately prior to start of glucose infusion to define baseline. A stepped infusion of glucose (20% dextrose) is then initiated at a rate of 10 mg/kg/min for 20 minutes followed by an infusion of 25 mg/kg/min for an additional 20 minutes. Blood samples are taken at 10-minute intervals throughout the infusion period. Insulin levels are determined by immunoassay. […] Representative data are shown below in Table 3.

T1 sequence (P43220 24-463): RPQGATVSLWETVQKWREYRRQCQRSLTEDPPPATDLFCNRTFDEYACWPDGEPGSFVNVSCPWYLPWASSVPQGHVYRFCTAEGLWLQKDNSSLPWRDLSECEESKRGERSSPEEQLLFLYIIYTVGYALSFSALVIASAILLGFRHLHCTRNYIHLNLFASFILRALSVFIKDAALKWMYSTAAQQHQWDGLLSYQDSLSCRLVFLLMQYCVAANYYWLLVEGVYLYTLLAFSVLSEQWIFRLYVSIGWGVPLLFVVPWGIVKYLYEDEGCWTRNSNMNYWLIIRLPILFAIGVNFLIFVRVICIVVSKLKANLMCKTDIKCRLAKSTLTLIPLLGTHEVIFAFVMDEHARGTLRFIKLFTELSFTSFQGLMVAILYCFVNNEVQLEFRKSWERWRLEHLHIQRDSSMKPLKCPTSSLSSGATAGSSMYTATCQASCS

Substance: PEGylated GLP-1 compound of Formula I, wherein Xaa8 is Val; Xaa22 is Glu; Xaa33 is Ile; and Xaa46 is Cys-NH2: Formula I (SEQ ID NO: 1) peptide, one PEG molecule covalently attached to Cys45 and one to Cys46-NH2 (HVEGTFTSDVSSYLEEQAAKEFIAWLIKGGPSSGAPPPC(PEG)C(PEG)-NH2; reading uncertain)
- AUC0-last [1]: 7464.78 ng·h/mL
- CL/F (total body clearance as a function of bioavailability) [1]: 1.06 mL/h/kg
- Cmax (maximum observed serum concentration) [1]: 69.49 ng/mL
- Tmax (time of maximum observed serum concentration) [1]: 48 h
- t1/2 (elimination half-life estimate) [1]: 75.69 h
- adverse clinical observations ([2]; IV or SC administration of 0.1 mg/kg): No adverse clinical observations
- elimination half-life ([2]; IV, 0.1 mg/kg): approximately 1.2 days
- AUC0-last ([2]; IV, 0.1 mg/kg): 52292 ng·h/mL
- CL/F (total body clearance as a function of bioavailability) ([2]; IV, 0.1 mg/kg): 1.9 mL/h/kg
- Cmax (maximum observed plasma concentration) ([2]; IV, 0.1 mg/kg): 2020 ng/mL
- Tmax (time of maximum observed plasma concentration) ([2]; IV, 0.1 mg/kg): 0.08 h
- t1/2 (elimination half-life) ([2]; IV, 0.1 mg/kg): 25.8 h
- elimination half-life ([2]; SC, 0.1 mg/kg): approximately 1.1 days
- subcutaneous bioavailability ([2]; SC, 0.1 mg/kg): approximately 30%
- AUC0-last ([2]; SC, 0.1 mg/kg): 15423 ng·h/mL
- CL/F (total body clearance as a function of bioavailability) ([2]; SC, 0.1 mg/kg): 6.5 mL/h/kg
- Cmax (maximum observed plasma concentration) ([2]; SC, 0.1 mg/kg): 191 ng/mL
- Tmax (time of maximum observed plasma concentration) ([2]; SC, 0.1 mg/kg): 24.0 h
- t1/2 (elimination half-life) ([2]; SC, 0.1 mg/kg): 28.3 h
- EC50 [3]: 0.36 ± 0.04 nM
- Insulin AUC, AUClast ([4]; Day 1 after SC 0.01 mg/kg): 30862 pM·min
- Insulin AUC, AUClast ([4]; Day 5 after SC 0.01 mg/kg): 27203 pM·min
- Insulin AUC, AUClast ([4]; Day 7 after SC 0.01 mg/kg): 28542 pM·min
- duration of insulinotropic activity ([4]; single SC injection of 0.01 mg/kg, relative to placebo, p<0.0001): at least 7 days

Substance: PEGylated GLP-1 compound of Formula I, wherein Xaa8 is Val; Xaa22 is Glu; Xaa33 is Ile; and Xaa46 is Cys: Formula I (SEQ ID NO: 1) peptide, one PEG molecule covalently attached to Cys45 and one to Cys46 (HVEGTFTSDVSSYLEEQAAKEFIAWLIKGGPSSGAPPPC(PEG)C(PEG); reading uncertain)
- EC50 [3]: 0.22 ± 0.03 nM
